One test addresses T1, PDE4D5-HSP20 complex (Homo sapiens, UniProt O14558).
T1 construct: containing the open reading frame of Hsp20 in pENTR221 vector, was used to generate pcDNA6.2-Hsp20; expressed in transfected cells; host or cells: HEK293 cells
T1 sequence (O14558 1-160): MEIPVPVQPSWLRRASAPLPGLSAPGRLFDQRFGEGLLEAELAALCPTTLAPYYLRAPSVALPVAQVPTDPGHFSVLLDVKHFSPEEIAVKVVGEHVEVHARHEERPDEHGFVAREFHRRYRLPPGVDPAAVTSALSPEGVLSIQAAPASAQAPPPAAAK
Put plainly: Immunoprecipitation of HSP20 probed for PDE4D5, HEK293 cell lysate. Format: binding. The conditions noted are these: HEK293 cells transfected with HSP20 and PDE4D5, increasing peptide concentrations. An excerpt: FIG. 6. Peptide disruption of the PDE4D-HSP20 complex promotes PKA phosphorylation on Ser16. A, Upper panel. HEK293 cells were transfected with HSP20 and PDE4D5. Immunoprecipitation of HSP20 done in the presence increasing concentrations of Peptide 906 (SEQ ID NO: 36) and Peptide control (SEQ ID NO: 37) were probed for PDE4D5. Lower panel. Densitometric analysis of amount of PDE4D5 in HSP20 immunoprecipitates normalised to expression level. Data representative of n=3. B, Purified preparations of HSP20-His and PDE4D5-GST were subject to an ELISA assay containing increasing amounts of ‘Peptide 906’ and ‘peptide control’. C, Upper panel, HSP20 was transfected into HEK293 cells and treated with ‘Peptide 906’ for indicated times. Cellular lysates were blotted for HSP20 and phospho-HSP20. Middle panel, HSP20 was transfected into HEK293 cells and treated with ‘Peptide 906’ or ‘peptide control’ for indicated times. Cellular lysates were blotted for HSP20 and phospho-HSP20. Lower panel, Densitometric analysis of phosphorylation of HSP20 normalised to expression level (n=3).
HEK293B2 cells are a stable cell line overexpressing the GFP-tagged β2AR were cultured as previously described^48. […] Protein concentration of lysates were determined using the Bradford assay and all samples were equalised for protein concentration. […]

For test [1], the system named is neonatal cardiac myocytes. Put plainly: Cardiac myocyte size by xCELLigence impedance (normalised cell index). Format: cell-based, rat. The conditions noted are these: 24 hour isoprenaline 10 μM, 30 min pre-treatment with 10 μM peptide. As for the experimental part: FIG. 7. Peptide disruption of the PDE4D-HSP20 complex attenuates the hypertrophic response triggered by constant […]-agonist treatment. A, Upper panel. The area covered by isolated cardiac myocytes was used as a measure of cell size. Lower panel, Graphical depiction of the mean areas (N=100) of cells following 24 hours of indicated treatments. B, impedance measurements were used to calculate continuous normalised cell index using exCELLigence technology Normalised mean (n=4) cell index after 24 hours of indicated treatments.
The E-Plate 96 (Roche) was used for these experiments^45. This comprises a 96-well plate with integral sensor electrode arrays to measure cell impedance. […] E-plate 96 is a 96-well microtiter plate with incorporated gold cell sensor arrays in the bottom, which allows impedance inside each well to be monitored and assayed in real time. […] The impedance measured between electrodes in an individual well depends on electrode geometry, ion concentration in the well and whether or not cells are attached to the electrodes^45. In the absence of cells, electrode impedance is mainly determined by the ion environment both at the electrode/solution interface and in the bulk solution. […] Small changes in impedance can also be recorded when cells temporally change shape or size in response to agonists^46,57. […]

Where no end group is shown, it is not given here.

From patent publication US20130209439A1, “INHIBITORS OF PDE4 BINDING TO HSP20” (THE UNIVERSITY COURT OF THE UNIVERSITY OF GLASGOW, priority 2010, published 2013) come the findings set out here.

For the substance “Peptide 906: stearoylated, cell-permeable disrupter peptide of PDE4D5 residues E468-K492 (SEQ ID NO: 36) (ENHHLAVGFKLLQEENSDIFQNLTK; also: stearoylated, site not given here)”, the “association between PDE4D5 and HSP20 in immunoprecipitation from cellular lysate” value in the test with PDE4D5-HSP20 complex was “attenuated the association between PDE4D5 and HSP20”. Moreover, the “cell size (normalised cell index, impedance) of cardiac myocytes” value in test [1] is “could be rescued”.
